Assay results from the supplement of paper PMC10065799, “High-throughput profiling of sequence recognition by tyrosine kinases and SH2 domains using bacterial peptide display” (eLife, 2023).

Legend:
FGFR1 = FGFR1 (UniProt P11362); assay: phosphorylation enrichment, bacterial display (enrichment ratio); higher = better substrate or ligand; peptides without Tyr show the background
AncSZ = assay: as above
Hck = Hck (UniProt P08631); assay: as above
FGFR3 = FGFR3 (UniProt P22607); assay: as above
c-Src = assay: as above
EPHB2 = EPHB2 (UniProt P29323); assay: as above
c-Abl (mouse) = assay: as above
Fyn = Fyn (UniProt P06241); assay: as above
MERTK = MERTK (UniProt Q12866); assay: as above
Fer (mouse) = assay: as above
Fes = Fes (UniProt P07332); assay: as above
EPHB1 = EPHB1 (UniProt P54762); assay: as above
Jak2 = Jak2 (UniProt O60674); assay: as above
c-Src SH2 = assay: SH2 binding enrichment of the phosphorylated peptide, bacterial display (enrichment ratio); higher = better substrate or ligand; peptides without Tyr show the background
SHP2-C SH2 = assay: as above
Grb2 SH2 = Grb2 SH2 (UniProt P62993); assay: as above
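Throughout, for SH2 binding enrichment of the phosphorylated peptide, bacterial display: peptide library displayed on the E. coli surface as eCPX fusions, selected cells deep-sequenced, score is each peptide's frequency after selection divided by its frequency in the input.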
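Throughout, for phosphorylation enrichment, bacterial display: 11-residue human phosphosite peptides and single-mutation variants displayed on the E. coli surface, counted by deep sequencing, each peptide's frequency after selection divided by its frequency in the unselected input library; frequency after pTyr selection over input frequency; kinase dosed for 20-30% of maximal phosphorylation in three min.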

EPHB2, sequence (P29323 whole entry, looked up): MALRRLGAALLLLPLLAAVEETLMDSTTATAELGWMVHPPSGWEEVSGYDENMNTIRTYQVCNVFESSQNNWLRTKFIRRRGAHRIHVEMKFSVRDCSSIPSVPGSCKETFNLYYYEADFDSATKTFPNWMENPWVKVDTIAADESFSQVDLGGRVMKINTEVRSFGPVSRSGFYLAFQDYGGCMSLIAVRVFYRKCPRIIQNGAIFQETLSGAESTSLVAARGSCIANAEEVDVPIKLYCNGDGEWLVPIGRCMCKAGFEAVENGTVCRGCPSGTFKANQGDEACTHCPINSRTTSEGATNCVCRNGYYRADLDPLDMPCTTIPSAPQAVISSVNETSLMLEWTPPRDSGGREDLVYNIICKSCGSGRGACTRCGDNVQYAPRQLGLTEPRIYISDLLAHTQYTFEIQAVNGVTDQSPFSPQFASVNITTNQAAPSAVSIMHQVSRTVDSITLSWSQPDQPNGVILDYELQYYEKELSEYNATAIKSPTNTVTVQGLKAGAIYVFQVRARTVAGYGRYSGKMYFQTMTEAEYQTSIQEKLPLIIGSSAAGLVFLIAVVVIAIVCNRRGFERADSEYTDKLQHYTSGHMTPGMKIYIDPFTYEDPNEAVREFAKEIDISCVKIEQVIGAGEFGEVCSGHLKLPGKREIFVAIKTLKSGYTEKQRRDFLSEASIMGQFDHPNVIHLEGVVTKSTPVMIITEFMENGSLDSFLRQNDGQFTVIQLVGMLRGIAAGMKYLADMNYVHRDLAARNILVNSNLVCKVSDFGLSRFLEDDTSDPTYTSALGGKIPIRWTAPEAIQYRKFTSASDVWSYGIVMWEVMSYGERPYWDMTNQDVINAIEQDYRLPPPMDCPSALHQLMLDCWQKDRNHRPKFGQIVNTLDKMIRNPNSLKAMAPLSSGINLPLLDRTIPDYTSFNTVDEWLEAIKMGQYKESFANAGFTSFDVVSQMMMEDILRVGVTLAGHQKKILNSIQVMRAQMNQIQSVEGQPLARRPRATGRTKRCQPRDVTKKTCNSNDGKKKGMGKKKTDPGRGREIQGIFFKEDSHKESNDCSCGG
MERTK, sequence (Q12866 whole entry, looked up): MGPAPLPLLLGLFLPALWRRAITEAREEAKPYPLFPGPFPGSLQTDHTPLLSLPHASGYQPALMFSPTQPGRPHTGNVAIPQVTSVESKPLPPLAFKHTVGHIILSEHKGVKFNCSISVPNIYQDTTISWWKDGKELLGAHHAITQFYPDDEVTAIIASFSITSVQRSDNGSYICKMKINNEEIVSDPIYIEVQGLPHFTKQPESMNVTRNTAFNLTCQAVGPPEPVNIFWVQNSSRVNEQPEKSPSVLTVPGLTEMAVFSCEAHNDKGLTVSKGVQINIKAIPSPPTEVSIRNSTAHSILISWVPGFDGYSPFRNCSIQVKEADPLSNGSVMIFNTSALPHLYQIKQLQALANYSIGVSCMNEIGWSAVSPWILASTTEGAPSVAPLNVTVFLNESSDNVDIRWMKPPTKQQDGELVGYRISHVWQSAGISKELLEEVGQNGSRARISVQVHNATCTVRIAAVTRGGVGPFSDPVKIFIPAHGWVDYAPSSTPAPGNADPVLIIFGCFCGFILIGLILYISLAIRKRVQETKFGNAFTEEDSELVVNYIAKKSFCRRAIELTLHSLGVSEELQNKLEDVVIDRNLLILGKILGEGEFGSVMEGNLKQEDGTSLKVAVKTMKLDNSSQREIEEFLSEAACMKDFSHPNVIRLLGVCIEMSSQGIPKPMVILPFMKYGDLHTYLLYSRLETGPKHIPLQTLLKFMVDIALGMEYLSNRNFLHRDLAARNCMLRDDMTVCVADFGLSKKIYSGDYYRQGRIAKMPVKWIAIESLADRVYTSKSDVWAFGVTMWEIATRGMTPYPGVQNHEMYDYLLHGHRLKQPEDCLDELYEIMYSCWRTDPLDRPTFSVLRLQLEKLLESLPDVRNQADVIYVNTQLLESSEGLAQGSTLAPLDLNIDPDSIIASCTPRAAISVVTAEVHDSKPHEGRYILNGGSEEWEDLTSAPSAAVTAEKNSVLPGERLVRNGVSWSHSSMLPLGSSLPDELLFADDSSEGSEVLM
EPHB1, sequence (P54762 whole entry, looked up): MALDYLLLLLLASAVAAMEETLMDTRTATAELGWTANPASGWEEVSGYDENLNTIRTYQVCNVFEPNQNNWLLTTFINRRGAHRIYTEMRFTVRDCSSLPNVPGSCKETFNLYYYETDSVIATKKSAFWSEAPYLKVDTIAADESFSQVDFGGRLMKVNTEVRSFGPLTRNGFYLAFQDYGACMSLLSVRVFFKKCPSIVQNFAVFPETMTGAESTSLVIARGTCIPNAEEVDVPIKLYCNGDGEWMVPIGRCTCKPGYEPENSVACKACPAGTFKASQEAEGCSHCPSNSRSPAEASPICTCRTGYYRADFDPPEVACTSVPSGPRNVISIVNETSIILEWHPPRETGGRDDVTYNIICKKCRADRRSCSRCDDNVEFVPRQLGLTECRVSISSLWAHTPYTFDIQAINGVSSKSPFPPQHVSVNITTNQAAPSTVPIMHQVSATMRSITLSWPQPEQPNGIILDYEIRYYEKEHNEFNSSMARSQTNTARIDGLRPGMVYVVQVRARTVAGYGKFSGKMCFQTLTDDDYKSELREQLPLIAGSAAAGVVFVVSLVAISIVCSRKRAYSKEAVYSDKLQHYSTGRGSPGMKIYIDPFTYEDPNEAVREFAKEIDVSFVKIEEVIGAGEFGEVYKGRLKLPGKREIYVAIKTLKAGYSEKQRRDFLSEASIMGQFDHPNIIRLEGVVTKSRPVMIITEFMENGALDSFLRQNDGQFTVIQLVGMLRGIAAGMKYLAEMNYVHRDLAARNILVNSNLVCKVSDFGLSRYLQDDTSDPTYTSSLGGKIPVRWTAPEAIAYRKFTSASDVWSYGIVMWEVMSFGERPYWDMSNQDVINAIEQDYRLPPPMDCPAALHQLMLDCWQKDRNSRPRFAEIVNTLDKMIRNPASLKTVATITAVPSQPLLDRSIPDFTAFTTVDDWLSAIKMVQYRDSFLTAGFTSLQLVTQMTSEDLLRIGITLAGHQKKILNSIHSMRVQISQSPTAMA
Hck, sequence (P08631 whole entry, looked up): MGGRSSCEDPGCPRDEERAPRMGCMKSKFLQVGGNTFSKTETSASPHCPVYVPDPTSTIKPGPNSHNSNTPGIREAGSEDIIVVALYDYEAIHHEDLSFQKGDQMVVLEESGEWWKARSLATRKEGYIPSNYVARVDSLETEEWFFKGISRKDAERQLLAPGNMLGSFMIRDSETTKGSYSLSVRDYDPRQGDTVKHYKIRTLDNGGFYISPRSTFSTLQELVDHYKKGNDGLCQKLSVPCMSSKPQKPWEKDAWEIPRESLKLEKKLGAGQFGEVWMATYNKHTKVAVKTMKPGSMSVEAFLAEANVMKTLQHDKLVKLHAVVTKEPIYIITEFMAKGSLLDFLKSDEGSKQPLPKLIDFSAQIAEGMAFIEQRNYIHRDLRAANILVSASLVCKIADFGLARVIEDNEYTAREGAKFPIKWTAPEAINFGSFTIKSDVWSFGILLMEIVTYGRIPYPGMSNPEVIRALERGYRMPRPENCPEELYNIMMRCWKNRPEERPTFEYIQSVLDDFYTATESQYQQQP
Fes, sequence (P07332 whole entry, looked up): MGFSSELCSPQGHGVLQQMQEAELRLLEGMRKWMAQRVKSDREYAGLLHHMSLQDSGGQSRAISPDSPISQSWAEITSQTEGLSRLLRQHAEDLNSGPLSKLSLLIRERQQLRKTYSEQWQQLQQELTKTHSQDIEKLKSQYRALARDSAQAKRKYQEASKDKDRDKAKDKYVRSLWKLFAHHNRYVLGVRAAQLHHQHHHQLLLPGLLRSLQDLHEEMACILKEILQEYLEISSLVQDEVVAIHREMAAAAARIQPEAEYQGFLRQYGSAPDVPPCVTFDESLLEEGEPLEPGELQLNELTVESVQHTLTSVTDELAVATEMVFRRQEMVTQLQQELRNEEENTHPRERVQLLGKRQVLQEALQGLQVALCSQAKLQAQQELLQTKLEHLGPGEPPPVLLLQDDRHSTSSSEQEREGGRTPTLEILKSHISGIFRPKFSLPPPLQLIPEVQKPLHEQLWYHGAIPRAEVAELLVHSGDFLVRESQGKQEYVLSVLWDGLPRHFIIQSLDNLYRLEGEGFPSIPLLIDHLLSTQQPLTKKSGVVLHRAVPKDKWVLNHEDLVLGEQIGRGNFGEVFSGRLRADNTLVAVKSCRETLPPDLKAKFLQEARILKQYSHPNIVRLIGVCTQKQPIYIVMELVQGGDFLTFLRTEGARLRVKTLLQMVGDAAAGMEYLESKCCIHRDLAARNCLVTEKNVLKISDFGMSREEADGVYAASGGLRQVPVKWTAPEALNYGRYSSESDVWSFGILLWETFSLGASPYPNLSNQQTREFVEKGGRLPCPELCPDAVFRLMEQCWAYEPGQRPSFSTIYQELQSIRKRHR
Grb2 SH2, sequence (P62993 whole entry, looked up, the tested form may be a part): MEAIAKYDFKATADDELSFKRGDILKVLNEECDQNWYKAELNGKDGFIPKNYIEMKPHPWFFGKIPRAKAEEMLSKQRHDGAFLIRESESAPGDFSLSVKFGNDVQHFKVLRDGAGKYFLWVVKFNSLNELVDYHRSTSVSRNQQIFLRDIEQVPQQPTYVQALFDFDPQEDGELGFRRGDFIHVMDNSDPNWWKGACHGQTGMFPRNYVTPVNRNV

Row | Sequence | phosphorylation enrichment (FGFR1) | phosphorylation enrichment (AncSZ) | phosphorylation enrichment (Hck) | phosphorylation enrichment (FGFR3) | phosphorylation enrichment (c-Src) | phosphorylation enrichment (EPHB2) | phosphorylation enrichment (c-Abl (mouse)) | phosphorylation enrichment (Fyn) | phosphorylation enrichment (MERTK) | phosphorylation enrichment (Fer (mouse)) | phosphorylation enrichment (Fes) | phosphorylation enrichment (EPHB1) | phosphorylation enrichment (Jak2) | SH2 binding enrichment (c-Src SH2) | SH2 binding enrichment (SHP2-C SH2) | SH2 binding enrichment (Grb2 SH2)
1 | AIFWRYSKFFD [SH3PXD2B_Y45_R43W_YF] | 0.445 | 0.839 | 0.41 | 0.805 | 0.326 | 0.52 | 0.959 | 0.444 | 0.323 | 0.49 | 1.35 | 0.493 | 1.16 | 0.699 | 0.782 | 1.05
2 | SGSIHYSHVPR [GLB1_Y57_R59H] | 0.451 | 0.681 | 0.451 | 0.518 | 0.383 | 0.451 | 0.658 | 0.35 | 0.425 | 0.606 | 0.79 | 0.426 | 0.6 | 0.593 | 1.55 | 0.745
3 | PLDGEYFTLRI [TP53_Y327_Q331R] | 6.1 | 2.77 | 1.76 | 5 | 3.13 | 1.04 | 1.93 | 2.55 | 0.45 | 0.971 | 2.19 | 1.04 | 2.88 | 0.596 | 0.539 | 0.767
4 | CTTIHYNYMSN [TP53_Y234_C238S] | 0.499 | 0.793 | 0.434 | 0.629 | 0.399 | 0.594 | 0.501 | 0.396 | 0.502 | 0.664 | 0.844 | 0.503 | 0.756 | 1.65 | 0.873 | 0.934
5 | KNRDVYSSDFF [USP24_Y2134_YF] | 0.718 | 0.651 | 0.832 | 0.544 | 0.952 | 1.73 | 0.752 | 0.833 | 3.39 | 0.429 | 0.828 | 1.69 | 0.693 | 0.588 | 0.55 | 0.916
6 | PATINYLFEKG [NDUFS8_Y84_P85L] | 0.796 | 0.754 | 0.562 | 0.963 | 0.435 | 0.529 | 0.293 | 0.357 | 0.36 | 0.43 | 0.891 | 0.541 | 0.703 | 0.611 | 0.663 | 1.05
7 | LTVVIYVLVGR [EPHA3_Y561_I564V] | 0.54 | 1.16 | 0.168 | 0.44 | 0.183 | 0.251 | 0.81 | 1.12 | 0.479 | 0.348 | 0.63 | 0.26 | 0.391 | 2.03 | 4.03 | 3.76
8 | VTAALYGCLYE [BTD_Y536_R538C] | 0.558 | 1.34 | 4.01 | 0.825 | 4.26 | 1.47 | 0.954 | 5.14 | 2.11 | 2.67 | 1.43 | 1.34 | 1.24 | 0.547 | 0.564 | 0.729
9 | RTLIRYANLGN [BEST1_Y131] | 0.621 | 1.03 | 0.481 | 0.654 | 0.685 | 0.666 | 1.04 | 0.973 | 0.706 | 0.737 | 1.14 | 0.918 | 0.793 | 0.802 | 1.12 | 3.12
10 | DSGKLYALDVL [INO80_Y1104] | 0.525 | 0.921 | 0.58 | 0.721 | 1.02 | 0.705 | 0.643 | 0.752 | 3.17 | 0.676 | 0.93 | 0.711 | 0.731 | 0.668 | 0.729 | 0.744
11 | GGDGSYVSVPS [TNNI3K_Y425] | 0.419 | 0.564 | 0.412 | 0.592 | 0.347 | 0.431 | 0.487 | 0.443 | 0.338 | 0.415 | 0.565 | 0.382 | 0.495 | 1.83 | 0.728 | 0.69
12 | ESDGAYIQRMQ [CCDC137_Y125_H127Q] | 0.385 | 0.687 | 0.446 | 0.54 | 0.456 | 0.496 | 0.599 | 0.423 | 0.43 | 0.417 | 0.772 | 0.474 | 0.985 | 0.468 | 0.708 | 0.731
13 | QWLEQYTQAIE [LSP1_Y234] | 0.489 | 1.4 | 0.699 | 0.589 | 0.406 | 0.623 | 10.2 | 0.596 | 0.37 | 0.473 | 1.15 | 0.579 | 0.924 | 0.709 | 0.574 | 0.876
14 | HFGCVYHGTLL [MET_Y1093] | 1.04 | 1.8 | 0.9 | 1.19 | 4.11 | 0.991 | 1.33 | 1.08 | 0.637 | 0.967 | 1.67 | 1.21 | 1.28 | 0.524 | 0.754 | 0.98
15 | VIESSYTSADG [DHCR7_Y382_C380S] | 0.531 | 0.892 | 0.476 | 0.627 | 0.546 | 0.596 | 0.618 | 0.551 | 0.596 | 0.519 | 0.961 | 0.468 | 0.873 | 4.23 | 0.861 | 0.894
16 | TLGPFYPSRLF [CRYAA_Y18] | 0.581 | 0.795 | 0.428 | 0.586 | 0.44 | 0.493 | 0.63 | 0.459 | 0.43 | 0.464 | 0.784 | 0.47 | 0.668 | 0.717 | 1.13 | 1.17
17 | SHMVNYQPYRK [TEX37_Y25_D24N] | 0.394 | 0.528 | 0.396 | 0.353 | 0.401 | 0.332 | 0.368 | 0.375 | 0.351 | 0.293 | 0.49 | 0.317 | 0.385 | 0.472 | 0.924 | 0.686

Row | Sequence | phosphorylation enrichment (FGFR1) | phosphorylation enrichment (AncSZ) | phosphorylation enrichment (Hck) | phosphorylation enrichment (FGFR3) | phosphorylation enrichment (c-Src) | phosphorylation enrichment (EPHB2) | phosphorylation enrichment (c-Abl (mouse)) | phosphorylation enrichment (Fyn) | phosphorylation enrichment (MERTK) | phosphorylation enrichment (Fer (mouse)) | phosphorylation enrichment (Fes) | phosphorylation enrichment (EPHB1) | phosphorylation enrichment (Jak2) | SH2 binding enrichment (c-Src SH2) | SH2 binding enrichment (SHP2-C SH2) | SH2 binding enrichment (Grb2 SH2)
18 | LIGRRCDDPEV [HSPA9_Y128_Y128C] | 0.697 | 1.76 | 0.575 | 1.03 | 0.722 | 0.623 | 1 | 1.12 | 0.582 | 0.666 | 1.51 | 0.782 | 1.41 | 0.431 | 0.557 | 0.997
19 | THLAPYSDELR [APOA1_Y190] | 0.46 | 0.722 | 0.481 | 0.594 | 0.434 | 0.582 | 0.521 | 0.51 | 0.467 | 0.442 | 0.968 | 0.51 | 0.688 | 0.437 | 0.909 | 0.723
20 | GNLLIYTEFGN [HGD_Y166_K171N] | 0.726 | 1.31 | 3.51 | 0.903 | 4.74 | 1.89 | 2.23 | 5.81 | 3.75 | 0.775 | 1.15 | 2.71 | 0.997 | 0.462 | 0.541 | 0.736
21 | ESKKHYGYSLY [ANXA3_Y295_F291S] | 0.408 | 0.595 | 0.646 | 0.474 | 0.541 | 0.455 | 0.435 | 0.454 | 0.486 | 0.453 | 0.593 | 0.413 | 0.551 | 0.913 | 0.963 | 0.704
22 | TAALWYIFSHT [ENG_Y612_YF] | 0.543 | 1.26 | 0.536 | 1.03 | 0.722 | 0.593 | 1.19 | 0.514 | 0.491 | 0.496 | 1.5 | 0.733 | 1.36 | 0.713 | 0.785 | 1.02
23 | QNTVDYFDLFG [PTPN11_Y62_G60V_YF] | 16.2 | 2.35 | 0.595 | 12.3 | 0.619 | 1.16 | 0.988 | 0.614 | 0.646 | 0.609 | 1.44 | 2.34 | 2.22 | 0.759 | 0.876 | 1.14
24 | PNRILYRDFRQ [MYH7_Y715_G716R] | 0.472 | 0.633 | 0.452 | 0.573 | 0.485 | 0.615 | 0.74 | 0.307 | 0.574 | 0.373 | 0.778 | 0.544 | 0.79 | 0.557 | 0.676 | 0.847
25 | SVTCTYSPAIN [TP53_Y126_L130I] | 0.702 | 1.5 | 0.749 | 1.1 | 0.684 | 0.735 | 1.08 | 0.615 | 0.466 | 0.743 | 1.83 | 1 | 1.37 | 0.435 | 0.5 | 0.817
26 | GEDLSYGDVPP [IRS1_Y151] | 0.588 | 1.22 | 0.556 | 0.84 | 0.482 | 0.534 | 0.765 | 0.639 | 0.463 | 0.709 | 1.28 | 0.624 | 0.995 | 0.529 | 0.732 | 0.806
27 | ANNEYYFRVCA | 1.89 | 1.4 | 0.657 | 1.94 | 0.526 | 0.759 | 1.08 | 0.471 | 0.439 | 0.469 | 1.4 | 0.895 | 1.53 | 0.402 | 0.461 | 0.646
28 | PPGRSYSPFDF [TNS1_Y793_YF] | 0.505 | 0.824 | 0.6 | 0.75 | 0.497 | 0.599 | 0.602 | 0.635 | 0.598 | 1.1 | 0.81 | 0.4 | 0.843 | 0.512 | 0.878 | 1.16
29 | SDFFAYSPVQE [H6PD_Y449_R453Q_YF] | 0.577 | 1.44 | 0.647 | 0.807 | 0.611 | 0.686 | 0.922 | 0.489 | 0.645 | 1.13 | 1.32 | 0.783 | 1.36 | 1.83 | 0.639 | 0.704
30 | ARRMEYLASQK [FGFR2_Y616_G613R] | 0.372 | 0.461 | 0.333 | 0.437 | 0.382 | 0.558 | 0.286 | 0.367 | 0.402 | 0.293 | 0.557 | 0.947 | 0.367 | 0.469 | 0.464 | 1.09
31 | SHLSSYTTHPQ [NIPBL_Y195_P192L] | 0.435 | 0.569 | 0.44 | 0.591 | 0.419 | 0.393 | 0.534 | 0.451 | 0.399 | 0.392 | 0.726 | 0.389 | 0.663 | 0.482 | 0.575 | 0.714
32 | MHFSNYVSKGS [PDGFRA_Y849_D846Y_YF] | 0.394 | 0.522 | 0.457 | 0.565 | 0.384 | 0.439 | 0.406 | 0.495 | 0.381 | 0.367 | 0.578 | 0.604 | 0.489 | 0.551 | 0.578 | 0.831
33 | QRIHDYYEHRY [HCN4_Y554] | 15.7 | 1.25 | 0.825 | 9.67 | 0.478 | 1.23 | 0.445 | 0.657 | 0.433 | 0.903 | 0.974 | 1.17 | 0.794 | 1.36 | 1 | 1.01
